B1: Compound 2 (peptide)
peptide: HSQGTFTSDYSKYLDK([γGlu-Palmitoyl])KAAHDFVEWLLRA-NH2
modifications: N-terminus assumed
SMILES: CCCCCCCCCCCCCCCC(=O)N[C@@H](CCC(=O)NCCCC[C@H](NC(=O)[C@H](CC(=O)O)NC(=O)[C@H](CC(C)C)NC(=O)[C@H](Cc1ccc(O)cc1)NC(=O)[C@H](CCCCN)NC(=O)[C@H](CO)NC(=O)[C@H](Cc1ccc(O)cc1)NC(=O)[C@H](CC(=O)O)NC(=O)[C@H](CO)NC(=O)[C@@H](NC(=O)[C@H](Cc1ccccc1)NC(=O)[C@@H](NC(=O)CNC(=O)[C@H](CCC(N)=O)NC(=O)[C@H](CO)NC(=O)[C@@H](N)Cc1c[nH]cn1)[C@@H](C)O)[C@@H](C)O)C(=O)N[C@@H](CCCCN)C(=O)N[C@@H](C)C(=O)N[C@@H](C)C(=O)N[C@@H](Cc1c[nH]cn1)C(=O)N[C@@H](CC(=O)O)C(=O)N[C@@H](Cc1ccccc1)C(=O)N[C@H](C(=O)N[C@@H](CCC(=O)O)C(=O)N[C@@H](Cc1c[nH]c2ccccc12)C(=O)N[C@@H](CC(C)C)C(=O)N[C@@H](CC(C)C)C(=O)N[C@@H](CCCNC(=N)N)C(=O)N[C@@H](C)C(N)=O)C(C)C)C(=O)O
B2: Compound 13 (peptide)
peptide: H[Aib]QGTFTSDYSKYLDSK([γGlu-Palmitoyl])AAHDFVEWLLKA-NH2
modifications: lactam 24-28; N-terminus assumed
SMILES: CCCCCCCCCCCCCCCC(=O)N[C@@H](CCC(=O)NCCCC[C@H](NC(=O)[C@H](CO)NC(=O)[C@H](CC(=O)O)NC(=O)[C@H](CC(C)C)NC(=O)[C@H](Cc1ccc(O)cc1)NC(=O)[C@H](CCCCN)NC(=O)[C@H](CO)NC(=O)[C@H](Cc1ccc(O)cc1)NC(=O)[C@H](CC(=O)O)NC(=O)[C@H](CO)NC(=O)[C@@H](NC(=O)[C@H](Cc1ccccc1)NC(=O)[C@@H](NC(=O)CNC(=O)[C@H](CCC(N)=O)NC(=O)C(C)(C)NC(=O)[C@@H](N)Cc1c[nH]cn1)[C@@H](C)O)[C@@H](C)O)C(=O)N[C@@H](C)C(=O)N[C@@H](C)C(=O)N[C@@H](Cc1c[nH]cn1)C(=O)N[C@@H](CC(=O)O)C(=O)N[C@@H](Cc1ccccc1)C(=O)N[C@H](C(=O)N[C@H]1CCC(=O)NCCCC[C@@H](C(=O)N[C@@H](C)C(N)=O)NC(=O)[C@H](CC(C)C)NC(=O)[C@H](CC(C)C)NC(=O)[C@H](Cc2c[nH]c3ccccc23)NC1=O)C(C)C)C(=O)O
B3: Compound 15 (peptide)
peptide: HXQGTFTSDYSKYLDSKAAHDFVEWLLSA
modifications: Aib at position 2; K(Hexadecanoyl-[3-Aminopropanoyl]) at position 17; C-terminal amide (NH2)
B4: Compound 14 (peptide)
peptide: HXQGTFTSDYSKYLDSKAAHDFVEWLLSA
modifications: Aib at position 2; K(Dodecanoyl-γ-Glu) at position 17; C-terminal amide (NH2)
B5: Compound 1 (peptide)
peptide: H-HSQGTFTSDYSKYLDSKAAHDFVEWLLRA-NH2
B6: Compound 17 (peptide)
peptide: HXQGTFTSDYSKYLDSKAAHDFVEWLLSA
modifications: Aib at position 2; K(Hexadecanoyl-ε-Lys) at position 17; C-terminal amide (NH2)
B7: Compound 11 (peptide)
peptide: H-H[Aib]QGTFTSDYSKYLDSK([γGlu-Palmitoyl])AAHDFVEWLLRA-NH2
SMILES: CCCCCCCCCCCCCCCC(=O)N[C@@H](CCC(=O)NCCCC[C@H](NC(=O)[C@H](CO)NC(=O)[C@H](CC(=O)O)NC(=O)[C@H](CC(C)C)NC(=O)[C@H](Cc1ccc(O)cc1)NC(=O)[C@H](CCCCN)NC(=O)[C@H](CO)NC(=O)[C@H](Cc1ccc(O)cc1)NC(=O)[C@H](CC(=O)O)NC(=O)[C@H](CO)NC(=O)[C@@H](NC(=O)[C@H](Cc1ccccc1)NC(=O)[C@@H](NC(=O)CNC(=O)[C@H](CCC(N)=O)NC(=O)C(C)(C)NC(=O)[C@@H](N)Cc1c[nH]cn1)[C@@H](C)O)[C@@H](C)O)C(=O)N[C@@H](C)C(=O)N[C@@H](C)C(=O)N[C@@H](Cc1c[nH]cn1)C(=O)N[C@@H](CC(=O)O)C(=O)N[C@@H](Cc1ccccc1)C(=O)N[C@H](C(=O)N[C@@H](CCC(=O)O)C(=O)N[C@@H](Cc1c[nH]c2ccccc12)C(=O)N[C@@H](CC(C)C)C(=O)N[C@@H](CC(C)C)C(=O)N[C@@H](CCCNC(=N)N)C(=O)N[C@@H](C)C(N)=O)C(C)C)C(=O)O
B8: Compound 16 (peptide)
peptide: HXQGTFTSDYSKYLDSKAAHDFVEWLLSA
modifications: Aib at position 2; K(Hexadecanoyl-[8-Aminooctanoyl]) at position 17; C-terminal amide (NH2)
B9: Compound 4 (peptide)
peptide: H-HSQGTFTSDYSKYLDSKAAK([γGlu-Palmitoyl])DFVEWLLRA-NH2
SMILES: CCCCCCCCCCCCCCCC(=O)N[C@@H](CCC(=O)NCCCC[C@H](NC(=O)[C@H](C)NC(=O)[C@H](C)NC(=O)[C@H](CCCCN)NC(=O)[C@H](CO)NC(=O)[C@H](CC(=O)O)NC(=O)[C@H](CC(C)C)NC(=O)[C@H](Cc1ccc(O)cc1)NC(=O)[C@H](CCCCN)NC(=O)[C@H](CO)NC(=O)[C@H](Cc1ccc(O)cc1)NC(=O)[C@H](CC(=O)O)NC(=O)[C@H](CO)NC(=O)[C@@H](NC(=O)[C@H](Cc1ccccc1)NC(=O)[C@@H](NC(=O)CNC(=O)[C@H](CCC(N)=O)NC(=O)[C@H](CO)NC(=O)[C@@H](N)Cc1c[nH]cn1)[C@@H](C)O)[C@@H](C)O)C(=O)N[C@@H](CC(=O)O)C(=O)N[C@@H](Cc1ccccc1)C(=O)N[C@H](C(=O)N[C@@H](CCC(=O)O)C(=O)N[C@@H](Cc1c[nH]c2ccccc12)C(=O)N[C@@H](CC(C)C)C(=O)N[C@@H](CC(C)C)C(=O)N[C@@H](CCCNC(=N)N)C(=O)N[C@@H](C)C(N)=O)C(C)C)C(=O)O
B10: Compound 3 (peptide)
peptide: H-HSQGTFTSDYSKYLDSK([γGlu-Palmitoyl])AAHDFVEWLLRA-NH2
SMILES: CCCCCCCCCCCCCCCC(=O)N[C@@H](CCC(=O)NCCCC[C@H](NC(=O)[C@H](CO)NC(=O)[C@H](CC(=O)O)NC(=O)[C@H](CC(C)C)NC(=O)[C@H](Cc1ccc(O)cc1)NC(=O)[C@H](CCCCN)NC(=O)[C@H](CO)NC(=O)[C@H](Cc1ccc(O)cc1)NC(=O)[C@H](CC(=O)O)NC(=O)[C@H](CO)NC(=O)[C@@H](NC(=O)[C@H](Cc1ccccc1)NC(=O)[C@@H](NC(=O)CNC(=O)[C@H](CCC(N)=O)NC(=O)[C@H](CO)NC(=O)[C@@H](N)Cc1c[nH]cn1)[C@@H](C)O)[C@@H](C)O)C(=O)N[C@@H](C)C(=O)N[C@@H](C)C(=O)N[C@@H](Cc1c[nH]cn1)C(=O)N[C@@H](CC(=O)O)C(=O)N[C@@H](Cc1ccccc1)C(=O)N[C@H](C(=O)N[C@@H](CCC(=O)O)C(=O)N[C@@H](Cc1c[nH]c2ccccc12)C(=O)N[C@@H](CC(C)C)C(=O)N[C@@H](CC(C)C)C(=O)N[C@@H](CCCNC(=N)N)C(=O)N[C@@H](C)C(N)=O)C(C)C)C(=O)O

Numbered stars: 1 amine (or outer) side, 2 acyl side, 3 side chain; on linkers, the order of the positions; unused ones are H or OH. Bridge positions count the residues as written; N and C are the ends. Square brackets hold non-standard residues; d marks the D form. Side chains are listed from the residue outwards. Ends that are not written are not given here. * marks the point of attachment. γGlu = O=C(O)[C@H](CCC(=O)[*:2])N[*:1]; Palmitoyl = CCCCCCCCCCCCCCCC(=O)*; Aib = CC(C)(N)C(=O)O

The first assay deals with human glucagon-like peptide 1 receptor (GLP-1R) (human, UniProt P43220 24-463). The assay is described as follows: cell-based or functional assay.
human glucagon-like peptide 1 receptor (GLP-1R), sequence (P43220 24-463): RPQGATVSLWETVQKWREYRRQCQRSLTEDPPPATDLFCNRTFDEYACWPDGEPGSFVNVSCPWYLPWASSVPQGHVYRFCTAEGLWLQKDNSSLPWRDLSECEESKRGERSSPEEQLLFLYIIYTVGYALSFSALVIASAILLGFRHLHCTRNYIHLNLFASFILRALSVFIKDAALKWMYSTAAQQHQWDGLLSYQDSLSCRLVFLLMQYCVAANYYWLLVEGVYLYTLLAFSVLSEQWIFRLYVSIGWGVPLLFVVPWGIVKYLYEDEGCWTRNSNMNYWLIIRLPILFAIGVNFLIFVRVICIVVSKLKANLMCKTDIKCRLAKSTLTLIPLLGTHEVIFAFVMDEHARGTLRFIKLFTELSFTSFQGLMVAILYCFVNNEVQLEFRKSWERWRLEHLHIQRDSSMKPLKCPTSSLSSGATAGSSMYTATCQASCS
Turning to B1, the “EC50 (nM) GLP-1R, cAMP formation” value amounted to 0.2 nM.

Regarding B2, the “EC50 (nM) GLP-1R, cAMP formation” value stood at 0.08 nM.

As to B3, the “EC50 (nM) GLP-1R, cAMP formation” value is 0.23 nM.

Regarding B4, the “EC50 (nM) GLP-1R, cAMP formation” value came out at 0.14 nM.

On to B5, for which the “EC50 (nM) GLP-1R, cAMP formation” value is 0.06 nM.

On to B6, for which the “EC50 (nM) GLP-1R, cAMP formation” value was 0.09 nM.

On to B7, for which the “EC50 (nM) GLP-1R, cAMP formation” value came out at 0.09 nM.

With B8, the “EC50 (nM) GLP-1R, cAMP formation” value is 0.24 nM.

Take B9: the “EC50 (nM) GLP-1R, cAMP formation” value was found to be 0.1 nM.

Take B10: the “EC50 (nM) GLP-1R, cAMP formation” value was found to be 0.11 nM.

The target of a further assay is T1, human glucagon receptor (Glucagon-R) (human, UniProt P47871 26-477). The assay is described as follows: cell-based or functional assay.
As for B1, the “EC50 (nM) GluR, cAMP formation” value came to 0.13 nM.

As to B2, the “EC50 (nM) GluR, cAMP formation” value came to 0.26 nM.

For B3, the “EC50 (nM) GluR, cAMP formation” value was determined as 1.87 nM.

For B4, the “EC50 (nM) GluR, cAMP formation” value turned out to be 0.78 nM.

For the molecule B5, the “EC50 (nM) GluR, cAMP formation” value was found to be 0.06 nM.

Regarding B6, the “EC50 (nM) GluR, cAMP formation” value worked out at 0.39 nM.

On to B7, for which the “EC50 (nM) GluR, cAMP formation” value turned out to be 0.16 nM.

As for B8, the “EC50 (nM) GluR, cAMP formation” value is 0.46 nM.

Turning to B9, the “EC50 (nM) GluR, cAMP formation” value came to 0.04 nM.

As for B10, the “EC50 (nM) GluR, cAMP formation” value was found to be 0.12 nM.

The next assay concerns the target T1, human glucagon receptor (Glucagon-R). Kind of assay: cell-based or functional assay. The source holds these as a separate data set.
With B5, the “GluR EC50 (nM) (1), cAMP formation in primary human hepatocytes” value amounted to 1.4 nM; the “GluR EC50 (nM) (2), cAMP formation in primary human hepatocytes” value was 2.2 nM; the “GluR EC50 (nM) (log avg), cAMP formation in primary human hepatocytes” value amounted to 1.8 nM.

B7: the “GluR EC50 (nM) (1), cAMP formation in primary human hepatocytes” value was found to be 32.9 nM; the “GluR EC50 (nM) (2), cAMP formation in primary human hepatocytes” value came to 25.5 nM; the “GluR EC50 (nM) (log avg), cAMP formation in primary human hepatocytes” value came out at 28.9 nM.

Values taken from patent US20160120951A1 (ZEALAND PHARMA A S, published 2016).
